Source: article PMC6637133, “SPRTN protease and checkpoint kinase 1 cross-activation loop safeguards DNA replication” (Nature Communications, 2019)

Target: T1, recombinant His6-tagged SPRTN (human, UniProt Q9H040 1-489)
T1 construct: SPRTN metalloprotease, human; The methods of this pull-down are not described; also called purified SPRTN; source: recombinant, purified in house from E. coli
T1 sequence (looked up): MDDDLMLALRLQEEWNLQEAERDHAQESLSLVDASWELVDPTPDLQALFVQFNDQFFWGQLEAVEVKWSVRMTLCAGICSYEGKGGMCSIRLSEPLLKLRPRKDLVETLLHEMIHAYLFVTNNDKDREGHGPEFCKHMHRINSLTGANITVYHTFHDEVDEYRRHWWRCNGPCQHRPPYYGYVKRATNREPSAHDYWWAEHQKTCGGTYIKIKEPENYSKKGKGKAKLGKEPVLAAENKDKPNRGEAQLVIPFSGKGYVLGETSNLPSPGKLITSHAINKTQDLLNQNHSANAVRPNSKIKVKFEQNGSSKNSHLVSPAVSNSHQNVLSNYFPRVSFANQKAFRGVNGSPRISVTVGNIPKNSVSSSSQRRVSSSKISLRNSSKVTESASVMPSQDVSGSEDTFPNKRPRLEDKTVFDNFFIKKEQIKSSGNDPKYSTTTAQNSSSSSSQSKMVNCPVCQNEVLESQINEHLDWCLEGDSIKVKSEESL
Assay: pull-down; recombinant His6-tagged SPRTN held on Ni-NTA beads, purified CHK1 co-precipitated; immunoblot
Details: both partners purified

B1: Purified CHK1 (enzyme, human, UniProt O14757 1-476, looked up)
chain: MAVPFVEDWDLVQTLGEGAYGEVQLAVNRVTEEAVAVKIVDMKRAVDCPENIKKEICINKMLNHENVVKFYGHRREGNIQYLFLEYCSGGELFDRIEPDIGMPEPDAQRFFHQLMAGVVYLHGIGITHRDIKPENLLLDERDNLKISDFGLATVFRYNNRERLLNKMCGTLPYVAPELLKRREFHAEPVDVWSCGIVLTAMLAGELPWDQPSDSCQEYSDWKEKKTYLNPWKKIDSAPLALLHKILVENPSARITIPDIKKDRWYNKPLKKGAKRPRVTSGGVSESPSGFSKHIQSNLDFSPVNSASSEENVKYSSSQPEPRTGLSLWDTSPSYIDKLVQGISFSQPTCPDHMLLNSQLLGTPGSSQNPWQRLVKRMTRFFTKLDADKSYQCLKETCEKLGYQWKKSCMNQVTISTTDRRNNKLIFKVNLLEMDDKILVDFRLSKGDGLEFKRHFLKIKGKLIDIVSSQKIWLPAT
notes: checkpoint kinase 1 (CHK1), human
- binding result: binds
